Assay results taken from patent US20250051433A1 (INMAGENE PTE, published 2025).

Key:
[1] = target: T1, human long form TSLP expressed on cell membrane; assay: FACS on cells expressing the membrane human long-form TSLP fusion protein, MFI; unit taken from the concentration axis
T1 construct: also called membrane long-form huTSLP fusion protein; membrane long-form TSLP fusion protein

[2] = target: T1, human long form TSLP expressed on cell …; assay: FACS on cells expressing the membrane human long-form TSLP fusion protein, MFI; rising binding curve, but the table column is headed IC50; unit taken from the concentration axis
[3] = target: T2, cynomolgus long-form TSLP protein (ACRO, tsp-c52h8) (cynomolgus monkey, UniProt A0A7N9CAT7 29-159); assay: ELISA on coated cynomolgus long-form TSLP, OD450; curve still rising at the highest concentration (about 1.2 at about 20 µg/mL, fitted Top 1.343); unit taken from the concentration axis
T2 construct: also called monkey long-form TSLP; Cyno TSLP
T2 sequence: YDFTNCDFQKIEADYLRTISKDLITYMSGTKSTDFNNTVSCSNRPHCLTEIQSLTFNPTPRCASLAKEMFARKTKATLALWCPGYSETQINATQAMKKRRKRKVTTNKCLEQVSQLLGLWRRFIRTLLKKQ

[4] = target: T1, human long form TSLP expressed on cell …; assay: FACS on cells expressing the membrane human long-form TSLP fusion protein, MFI; unit taken from the concentration axis; remark: listed apart in the source
[5] = target: T1, human long form TSLP expressed on cell …; assay: as above; remark: listed apart in the source
[6] = target: T1, human long form TSLP expressed on cell …; assay: as above; remark: listed apart in the source
[7] = target: T3, membrane short-form huTSLP fusion protein (human); assay: FACS on cells expressing membrane short-form huTSLP, MFI; ambiguous fit of a flat curve (Bottom 778.2, Top 872.2), see non_binding; unit taken from the concentration axis
T3 construct: also called human short form TSLP expressed on cell membrane

[8] = target: T4, mouse long-form TSLP protein (ACRO, tsp-m52h8) (mouse, UniProt Q9JIE6 20-140); assay: ELISA on coated mouse long-form TSLP
T4 construct: Bought; also called mouse TSLP
T4 sequence (looked up): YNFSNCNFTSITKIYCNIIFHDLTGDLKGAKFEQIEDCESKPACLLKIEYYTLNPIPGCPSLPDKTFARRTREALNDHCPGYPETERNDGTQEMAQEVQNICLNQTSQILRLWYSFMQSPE

T1 sequence (chain, as listed by the source): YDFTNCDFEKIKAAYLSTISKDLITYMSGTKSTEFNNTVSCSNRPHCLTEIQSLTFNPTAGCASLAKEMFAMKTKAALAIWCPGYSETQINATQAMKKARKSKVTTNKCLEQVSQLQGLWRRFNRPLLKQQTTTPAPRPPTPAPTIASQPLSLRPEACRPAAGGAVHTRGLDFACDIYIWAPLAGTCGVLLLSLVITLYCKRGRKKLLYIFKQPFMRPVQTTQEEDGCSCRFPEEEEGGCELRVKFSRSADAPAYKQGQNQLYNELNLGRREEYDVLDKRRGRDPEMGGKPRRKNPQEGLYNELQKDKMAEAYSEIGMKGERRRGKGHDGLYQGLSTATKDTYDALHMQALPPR
T3 sequence (chain, as listed by the source limits assumed): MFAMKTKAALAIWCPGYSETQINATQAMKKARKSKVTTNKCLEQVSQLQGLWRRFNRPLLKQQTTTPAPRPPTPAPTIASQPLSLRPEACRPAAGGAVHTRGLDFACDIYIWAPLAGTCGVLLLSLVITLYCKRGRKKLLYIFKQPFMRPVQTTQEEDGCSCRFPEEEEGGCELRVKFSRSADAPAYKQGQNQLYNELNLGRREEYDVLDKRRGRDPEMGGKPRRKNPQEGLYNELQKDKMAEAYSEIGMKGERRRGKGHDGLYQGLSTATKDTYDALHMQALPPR

EC50 [1]: 0.0466 µg/mL
EC50 [2]: 0.515 µg/mL
EC50 [3]: 1.24 µg/mL
EC50 [4]: 0.0712 µg/mL
EC50 [5]: 0.219 µg/mL
EC50 [6]: 0.156 µg/mL
EC50 [7]: ~13.5 µg/mL
binding result [8]: no binding (tested: about 20 µg/mL)
B1: AMG 157 (antibody, human IgG2, lambda, V domains shown)
VH: QMQLVESGGGVVQPGRSLRLSCAASGFTFRTYGMHWVRQAPGKGLEWVAVIWYDGSNKHYADSVKGRFTITRDNSKNTLNLQMNSLRAEDTAVYYCARAPQWELVHEAFDIWGQGTMVTVSS
VL: SYVLTQPPSVSVAPGQTARITCGGNNLGSKSVHWYQQKPGQAPVLVVYDDSDRPSWIPERFSGSNSGNTATLTISRGEAGDEADYYCQVWDSSSDHVVFGGGTKLTVLG
notes: also called BMK; benchmark
